According to the supplement of paper PMC10567573:
± gives the standard deviation.

Test: protein stability index of a GFP-peptide fusion (GPS, HEK-293T) (PSI 1-6); higher = more stable
Conditions: c terminus: a fixed tail appended
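Also: 24-mer peptide tiles fused after GFP, lentivirally expressed, FACS-sorted into six equal bins by GFP/DsRed ratio, decoded by Illumina sequencing, PSI is the read-weighted mean bin number.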

Sequence	protein stability index (treatment: DMSO)	protein stability index (treatment: MLN4924 1 uM, 8 h)
DHVHILDTETFTWSQPITTGKAPS [KLHDC2]	3.82 ± 0.3	3.84 ± 0.4
KLDFKEKAQAKVGSLDNAHHVPGG [MAP2]	4.73 ± 0.2	4.7 ± 0.16
RYADLEAVNRARRPLARPIKRGDI [RHOBTB1]	3.6 ± 0.4	3.83 ± 0.12
ADLENEDIFPELDDILYHVKGMQR [DLC1]	3.7 ± 0.13	3.72 ± 0.34
EDITKGTQSLPTASASKFPSSGPV [AUP1]	5.19 ± 0.19	5.08 ± 0.1
AFAEMLRFGDRMFYKDWWNSTSYS [SOAT1]	2.52 ± 0.36	2.58 ± 0.54
KSSILTRAGEQRKRSQSMKSYPSS [CLCN6]	4.46 ± 0.25	4.6 ± 0.18
MEDKEMTGPQLPESLEDVAMYISQ [ZNF263]	4.73 ± 0.23	4.78 ± 0.2
VGDLMSPFDQSGLGAEESLGLLDD [ATF4]	5.17 ± 0.27	4.89 ± 0.28
SQQQNMMQDYVRTGTYQRAILQNH [CARM1]	3.21 ± 0.27	3.12 ± 0.23
VQRHNSFSPNSPQFNVSGPGLLEE [NECAB1]	4.03 ± 0.21	4.33 ± 0.32
GIIVKDARLNGSVASYILASHNGI [TENT5D]	2.66 ± 0.045	2.189 ± 0.003
LCSFLLLLLLQVSSSYAGQFRVIG [MOG]	3.39 ± 0.38	3.29 ± 0.29
AGPDSWGSDAEQSTSGQPYPTSDQ [LCOR]	5.48 ± 0.23	5.4 ± 0.13
RENKRMADSLASKVTRLKSLALDI [BET1L]	2.63 ± 0.12	2.7 ± 0.31
NEDEDLGPCEGPSKEDKDLDSSEG [SPANXN3]	5.66 ± 0.21	5.54 ± 0.17
CVTPNGRPISGTAVAHKTPRCPGS [SMOC2]	2.98 ± 0.67	3.89 ± 0.34

Sequence	protein stability index (treatment: DMSO)	protein stability index (treatment: MLN4924 1 uM, 8 h)
GKGWKATRLFHDSAVTSVRILQDE [DCAF4]	3.39 ± 0.21	3.67 ± 0.34
ELQLEAANETYENNFDNLDFDLDL [ATF6]	4.76 ± 0.26	5.08 ± 0.11
IMLLDKNVPNPRIKLIDFGIAHKI [DAPK3]	2.89 ± 0.73	2.52 ± 0.46
VAGTMESPFSPGLFHRLDEDWDSA [ATF6]	4.38 ± 0.11	4.32 ± 0.2
THWAVGVCRDSVSRKGELTPLPET [TRIM39]	2.96 ± 0.19	2.95 ± 0.23
DPGHCFAESRELPVRCAGDWLPRG [ALG2]	3.1 ± 0.38	3.05 ± 0.25
DWYQKQTPTSPECDYSQYFKTIEE [KRT15]	3.86 ± 0.23	3.97 ± 0.26
LEEMILPLMVASAQSGERECHIVV [BTBD10]	2.35 ± 0.79	2.48 ± 0.48
VDNARIVLQIDNARLAADDFRVKY [KRT18]	2.58 ± 0.31	2.77 ± 0.21
LERKCEKRSVYIDARDEELEKDTM [ZC3H15]	4.93 ± 0.49	4.9 ± 0.075
STNEEEKEENEAESDVKHRTRDYK [PRIM1]	5.57 ± 0.17	5.16 ± 0.47
LQILAYGNQESKLIILASGGPQAL [CTNNB1]	2.89 ± 1.4	2.22 ± 1.1
YDPTYKDKEGPSPKVEYVWRNIIL [SCD]	2.11 ± 0.47	2.37 ± 0.23
IDHYVGIARDQTKSIVEKIQAKLP [RTN3]	3.05 ± 0.074	3.22 ± 0.39
RLVFLAAFVVYLETETLVTREAVT [TSN]	3.6 ± 0.24	2.82 ± 0.34
PQEAVLQQLHQLPRGRLDLATQSL [LRRC45]	3.75 ± 0.15	3.74 ± 0.21
